Drawing on PMC9876794 (2022), this text covers binding score for 25 molecules.

Bounds are passed on as bounds.

B1: D143 (antibody, V domains shown)
VH: EVQLVESGGGLVQPGGSLRLSCAASGFTFSSYSMNWVRQAPGKGLEWVSYISSSSSTIYYADSVKGRFTISRDNAKNSLYLQMNSLRDEDTAVYYCASHYGAPTSYYYYGMDVWGQGTTVTVSS
VL: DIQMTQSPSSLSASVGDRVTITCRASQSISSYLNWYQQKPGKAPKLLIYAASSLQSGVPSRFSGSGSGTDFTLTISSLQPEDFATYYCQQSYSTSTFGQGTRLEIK
B2: C2729 (antibody, V domains shown)
VH: QLQLQESGPGLVKPSETLSLTCTVSGGSISSSSYYWGWIRQPPGKGLEWIGSIYYSGSTYYNPSLKSRVTISVDTSKNQFSLKLSSVTAADTAVYYCARRWIQLWSGFDPWGQGTLVTVSS
VL: DIQLTQSPSFLSASVGDRVTITCRASQGISSYLAWYQQKPGKAPKLLIYAASTLQSGVPSRFSGSGSGTEFTLTISSLQPEDFATYYCQQLNSYSITFGQGTRLEIK
B3: D016 (antibody, V domains shown)
VH: EVQLVESGGGLVQPGRSLRLSCAASGFTFDDYAMHWVRQAPGKGLEWVSGISWNSGSIGYADSVKGRFTISRDNAKNSLYLQMNSLRAEDMALYYCAKDAGIAAVNWYFDLWGRGTLVTVSS
VL: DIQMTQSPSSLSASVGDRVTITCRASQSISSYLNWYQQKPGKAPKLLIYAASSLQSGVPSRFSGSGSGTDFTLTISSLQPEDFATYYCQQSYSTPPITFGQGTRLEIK
B4: D035 (antibody, V domains shown)
VH: EVQLVESGGGLVQPGRSLRLSCAASGFTFDDYAMHWVRQAPGKGLEWVSGISWNSGSIGYADSVKGRFTISRDNAKNSLYLQMNSLRAEDTALYYCAKDTVAGLPYWYFDLWGRGTLVTVSS
VL: not shown
B5: D097 (antibody, V domains shown)
VH: EVQLVQSGAEVKKPGESLKISCKGSGYSFTSYWIGWVRQMPGKGLEWMGIIYPGDSDTRYSPSFQGQVTISADKSISTAYLQWSSLKASDTAMYYCARLGDAGAFDIWGQGTMVTVSS
VL: QSVLTQPPSVSGAPGQRVTISCTGSSSNIGAGYDVHWYQQLPGTAPKLLIYGNSNRPSGVPDRFSGSKSGTSASLAITGLQAEDEADYYCQSYDSSLSGSKVFGGGTKLTVL
B6: D071 (antibody, V domains shown)
VH: EVQLVESGGGLVQPGRSLRLSCTASGFTFGDYAMSWFRQAPGKGLEWLGFIKSKSYGGTTEYAASVKGRFTISREDSKSIAYLQMNSLKTEDTAVYYCTRTIFGVVHFDYWGQGTLVTVSS
VL: SYVLTQPPSVSVAPGKTARITCERNNIGSKSVHWYQQKPGRAPVLVIYYDSDRPSGIPERFSGSNSENTATLTISRVEAGDEADYYCQVWNSSSDHPVFGGGTKLTVL
B7: D160 (antibody, V domains shown)
VH: QVQLVQSGAEVKKPGASVKVSCKASGYTFTTYGFSWVRQAPGQGLEWMGWISGYNGNTHYAQKVQGRVTMTTDTSTTTAYMELRSLTYDDTAVYYCARAGDDEANAFDIWGQGTMVTVSS
VL: DIQMTQSPSTLSASVGDRVTITCRASQTISIWLAWYQQKPGKAPKLLIYKASKIQSGVPSRFSGSESGTEFTLTISSLQPDDFATYYCQQYNSYPLTFGGGTKVESK
B8: D105 (antibody, V domains shown)
VH: QVQLQQWGAGLLKPSETLSLTCAVFGGSFSGYYWSWIRQPPGKGLEWIGEINHSGSTNYNPSLKSRVTLSVDTSKNQFSLELSSVTAADTAVYYCARVGPILFDYWGQGTLVTVSS
VL: QFVLTQPPSVSAAPGQKVTISCSGSSSNIGNNYVSWFQQLPGTAPKLLIYDNNMRPSRIPDRFSGSKSGTSATLGITGLQTGDEADYYCGTWDSSLSSVVFGGGTKLTVL
B9: D021 (antibody, V domains shown)
VH: QVQLVESGGGVVQPGRSLRLSCAASGFTFSSYGMHWVRQAPGKGLEWVAVISYDGSNKYYADSVKGRFTISRDNSKNTLYLQMNSLRAEDTAVYYCAKAGQYGDYTHSGDYWGQGTLVTVSS
VL: DIQMTQSPSSLSASVGDRVTITCQASQDISNYLNWYQQKPGKAPKLLIYDASNLETGVPSRFSGSGSGTDFTFTISSLQPEDIATYYCQQYDNLPIAFGQGTRLEIK
B10: D033 (antibody, V domains shown)
VH: QVQLVESGGGVVQPGRSLRLSCAASGFTFSYYAMHWVRQAPGKGLEWVAVISYDGINKYYADSVKGRFTFSRDNSKNTLYLQMNSLSAEDTAVYYCARPYCGGDCYRAPDYWGQGTLVTVSS
VL: QSVLTQEPSLTVSPGGTVTLTCGSSTGAVTSSHYPYWFQQKPGQVPRTLIYDTSNKHSWTPARFSGSLLGGKAALTLSGAQPEDEADYYCLLSYSGVRRVFGGGTKLTVL
B11: D161 (antibody, V domains shown)
VH: EVQLLESGGGLVQPGGSLRLSCAASGFTFSSYAMSWVRQAPGKGLEWVSAISGSGGSTSYADSVKGRFTISRDNSKNTLYLQMNSLRVEDTAVYYCAKGPRVTTEYFEYWGQGTLVTVSS
VL: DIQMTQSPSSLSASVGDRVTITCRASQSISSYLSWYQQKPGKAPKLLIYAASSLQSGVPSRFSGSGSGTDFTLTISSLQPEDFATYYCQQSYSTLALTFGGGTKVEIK
B12: D023 (antibody, V domains shown)
VH: EVQLVQSGAEVKKPGESLKISCKGSGYSFTSYWIGWVRQMPGKGLEWMGIIYPGDSDTRYSPSFQGQVTISADKSISTAYLQWSSLKASDTAMYYCAISYSGSYSGAFDIWGQGTMVTVSS
VL: not shown
B13: D055 (antibody, V domains shown)
VH: EVQLVESGGGLVQPGGSLRLSCAASGFTFSSYDMHWVRQATGKGLEWVSAIGTAGDTYYPGSVKGRFTISRENAKNSLYLQMNSLRAGDTAVYYCARGAMVRGVIMVFDYWGQGTLVTVSS
VL: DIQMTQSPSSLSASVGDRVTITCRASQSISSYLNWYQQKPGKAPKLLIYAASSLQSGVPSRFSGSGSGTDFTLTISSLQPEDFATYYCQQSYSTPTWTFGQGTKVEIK
B14: C2694 (antibody, V domains shown)
VH: EVQLVESGGGLVQPGRSLRLSCAASGFTFDDYAMHWVRQAPGKGLEWVSGISWNSGSIGYADSVKGRFTISRDNAKNSLYLQMNSLRAEDTALYYCAKDSLLWYDSSGYYHYYYYGMDVWGQGTTVTVSS
VL: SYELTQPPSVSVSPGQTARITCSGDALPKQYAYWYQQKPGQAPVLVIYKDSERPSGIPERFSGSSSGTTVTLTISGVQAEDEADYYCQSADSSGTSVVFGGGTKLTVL
B15: D163 (antibody, V domains shown)
VH: QVQLVQSGAEVKKPGASVKVSCKASGYTFTSYYMHWVRQAPGQGLEWMGIINPSGGSTSYAQKFQGRVTMTRDTSTSTVYMELSSLRSEDTAVYYCARDFSLIPATAMVLDYWGQGTLVTVSS
VL: DIQMTQSPVSLSASVGDRVTITCRASQSISSWLAWYQQKPGKAPKLLIYKASSLESGVPSRFSGSGSGTEFTLTISSLQPDDFATYYCQQYNSYASFGQGTKVEIK
B16: D072 (antibody, V domains shown)
VH: QVQLQQWGAGLLKPSETLSLTCAVYGGSFSGHYWSWIRQSPGKGLEWIGEINHSGDTNYNASLKSRVTISVDTSKNQFSLQMTSVTAADTAVYYCARRRGIVLMRAVDVWGKGTTVTVSS
VL: EIVMTQSPATLSLSPGERATLSCRASQSVSNNYFSWYQQKPGQAPRLLIYGASARATGIPARFSGSGSGTEFTLTISSLQPEDIALYFCQQDFHPYTFGQGTKLEIK
B17: D052 (antibody, V domains shown)
VH: EVQLVESGGGLVQPGGSLRLSCAASGFTFSSYDMHWVRQATGKGLEWVSAIGTAGDTYYPGSVKGRFTISRENAKNSLYLQMNSLRAGDTAVYYCARVGYSLYGDYKSYWYFDLWGRGTLVTVSS
VL: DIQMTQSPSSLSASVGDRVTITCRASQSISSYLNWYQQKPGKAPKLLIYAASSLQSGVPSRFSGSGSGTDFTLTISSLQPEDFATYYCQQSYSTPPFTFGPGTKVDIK
B18: C2691 (antibody, V domains shown)
VH: EVQLVESGGGLVQPGRSLRLSCAASGFTFDDYAMHWVRQAPGKGLEWVSGISWNSGSIGYADSVKGRFTISRDNAKNSLYLQMNSLRAEDTALYYCAKDNRLDTMVRGGRVDAFDIWGQGTMVTVSS
VL: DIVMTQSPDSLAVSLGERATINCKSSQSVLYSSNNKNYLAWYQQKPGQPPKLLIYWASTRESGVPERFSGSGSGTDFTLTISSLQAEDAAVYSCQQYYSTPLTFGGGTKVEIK
B19: D028 (antibody, V domains shown)
VH: QVQLVQSGAEVKKPGASVKVSCKASGYTFISYYVHWVRQAPGQGLEWMGIINPSGGSTSYTQKFQGRVTMTRDTSTSTVYMELSSLRFEDTAVYYCATEGGMITENSSLHWGQGTLVTVSS
VL: DIQMTQSPSTLSASVGDRVTITCRASQSISSWLAWYQQKPGKAPKLLIYKASSLESGVPSRFSGSGSGTEFTLAISSLQPDEFATYYCQQYNSYPWTFGQGTKVEIK
B20: D132 (antibody, V domains shown)
VH: EVQLVESGGGLVQPGRSLRLSCAASGFTFDDYAMHWVRQAPGKGLEWVSGISWNSGSIGYADSVKGRFTISRDNAKNSLYLQMNSLRNDDTALYYCAKGRIGGNYYLLDYWGQGTLVTVSS
VL: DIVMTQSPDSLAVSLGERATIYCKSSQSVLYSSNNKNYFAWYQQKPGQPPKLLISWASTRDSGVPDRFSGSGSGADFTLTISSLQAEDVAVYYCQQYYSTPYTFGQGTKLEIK
B21: D142 (antibody, V domains shown)
VH: QVQLVESGGGVVQPGRSLRLSCAASGFTFSSYGMHWVRQAPGKGLEWVAVISYDGSNKYYADSVKGRFTISRDNSKNTLYLQMNSLRAEDTAVYYCAKKPTMYYYDSSGYYYFDYWGQGTLVTVSS
VL: QFVLTQPPSVSGAPGQRVTISCTGSSSNIGAGYDVHWYQQLPGTAPKLLIYGNSNRPSGVPDRFSGSKSGTSASLAITGLQAEDEADYYCQSYDSSLSGYVFGTGTKVTVL
B22: D182 (antibody, V domains shown)
VH: QVQLVESGGGVVQPGRSLRLSCAASGFTFSSYGMHWVRQAPGKGLEWVAVISYDGSNKYYADSVKGRFTISRDNSKNTLYLQMNSLRAEDTAVYYCAKATVLMVYAGFDYWGQGTLVTVSS
VL: NFMLTQPHSVSESPGKTVTISCTGSSGSIASNYVQWYQQRPGSAPTTVIYEDNQRPSGVPDRFSGSIDSSSNSASLTISGLKTEDEADYYCQSYDSSNRWVFGGGTKLTVL
B23: C2732 (antibody, V domains shown)
VH: EVQLVESGGGLVQPGRSLRLSCAASGFTFDDYAMHWVRQAPGKGLEWVSGISWNSGSIGYADSVKGRFTISRDNAKNSLYLQMNSLRAEDTALYYCAKDIGRIAEGYGMDVWGQGTTVTVSS
VL: QSALTQPASVSESPGQSITISCTGTSSDIGGYNYVSWYQQHPGKAPKLMIYEVSNRPSGVSNRFSGSKSGNTASLTISGLQAEDEADYYCSSYTSSSTVVFGGGTKLTVL
B24: D168 (antibody, V domains shown)
VH: EVQLVESGGGLVKPGGSLRLSCAASGFTFSSYSMNWVRQAPGKGLEWVSSISSSSSYIYYADSVKGRFTISRDNAKNSLYLQMNSLRAEDTAVYYCARDLGTAIVYVREKYYYGMDVWGQGTTVTVSS
VL: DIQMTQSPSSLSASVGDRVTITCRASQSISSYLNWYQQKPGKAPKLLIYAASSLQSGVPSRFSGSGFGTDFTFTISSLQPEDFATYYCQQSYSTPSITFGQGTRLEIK
B25: D010 (antibody, V domains shown)
VH: EVQLVESGGGLVQPGRSLRLSCAAFGFTFDDYAMHWVRQAPGKGLEWVSGISWNSGSIGYADSVKGRFTISRDNAKNSLYLQMNSLRAEDTALYYCAKDITFRDGYPGAVDYWGQGTLVTVSS
VL: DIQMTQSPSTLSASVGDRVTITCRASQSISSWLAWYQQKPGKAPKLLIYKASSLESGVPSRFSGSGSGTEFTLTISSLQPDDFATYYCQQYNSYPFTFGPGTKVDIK

The target of the assay is SARS-CoV-2 spike RBD (WT) (Severe acute respiratory syndrome …, UniProt P0DTC2). The experiment in a line: ELISA. Also noted: unit not given here. A general note: In an ELISA, binding on a coated surface is turned into a signal by an enzyme label.
B1 showed a binding score of 39.5.

With B2, the binding score is above 10000.

The molecule B3 returned a binding score of 5250.

For the molecule B4, the binding score was above 10000.

B5: the binding score was above 10000.

As to B6, the binding score is above 10000.

The molecule B7 registered a binding score of 491.

B8: the binding score was found to be 1340.

As for B9, the binding score was 4670.

On to B10, for which the binding score was above 10000.

B11 displayed a binding score above 10000.

Turning to B12, the binding score was above 10000.

B13 displayed a binding score of 9930.

B14 returned a binding score above 10000.

Molecule B15 gave a binding score above 10000.

The molecule B16 displayed a binding score above 10000.

B17 showed a binding score of 49.

As to B18, the binding score is above 10000.

B19 came in with a binding score above 10000.

As for B20, the binding score was 9490.

The molecule B21 yielded a binding score above 10000.

B22 registered a binding score of 2500.

The molecule B23 showed a binding score of 376.

In turn, B24 yielded a binding score of 4730.

On to B25, for which the binding score was above 10000.
